According to article PMC7654188:

Target: preassembled microtubule filaments (tubulin polymerised with Taxol)
Test: co-sedimentation; microtubule spin-down assay (Cytoskeleton BK029): 5, 10 and 20 ug of COS1 lysate with or without Taxol-stabilised microtubule, room temperature 30 min, 60% glycerol cushion, 100,000 x g 40 min; pellet blotted with HA tag and alpha-tubulin antibodies

- fold microtubule binding relative to WT protein: 2.5 to 4 fold
Substance: HA-tagged CTTNBP2 D570Y (natural protein)
